{"source": "paper PMC6369299", "about": "“A heterodimeric glutathione S-transferase that stereospecifically breaks lignin's β(R)-aryl ether bond reveals the diversity of bacterial β-etherases” (The Journal of Biological Chemistry, 2018)", "key": {"NaLigE": {"target": "T1, NaLigE (Novosphingobium aromaticivorans, UniProt Q2G5N2)", "T1 construct": "gene Saro_2405; recombinant from E. coli; N-terminal His8 tag cut by TEV (SAIAG- left); homodimer", "T1 sequence (Q2G5N2 1-279)": "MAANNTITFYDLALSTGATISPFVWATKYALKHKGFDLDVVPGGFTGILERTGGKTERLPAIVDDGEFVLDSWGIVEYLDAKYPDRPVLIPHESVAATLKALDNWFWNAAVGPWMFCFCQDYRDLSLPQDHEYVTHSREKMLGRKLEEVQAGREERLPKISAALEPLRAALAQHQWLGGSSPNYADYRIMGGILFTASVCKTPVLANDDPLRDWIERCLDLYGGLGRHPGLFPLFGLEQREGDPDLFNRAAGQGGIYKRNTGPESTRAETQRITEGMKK", "assay": "initial rate of GS-HPV formation by HPLC, Michaelis-Menten fit", "type": "biochemical", "conditions": "racemic MPHPV added, concentration counted as β(R); 5 mM GSH, 25 mM Tris-HCl pH 8.0, 25 mM NaCl, 25 °C; per subunit of the homodimer", "description": "initial rate of GS-HPV formation by HPLC, Michaelis-Menten fit on NaLigE"}, "NaLigF1": {"target": "T2, NaLigF1 (Novosphingobium aromaticivorans, UniProt Q2G6J3)", "T2 construct": "gene Saro_2091; recombinant, purified as described previously", "T2 sequence (Q2G6J3 11-257 limits assumed)": "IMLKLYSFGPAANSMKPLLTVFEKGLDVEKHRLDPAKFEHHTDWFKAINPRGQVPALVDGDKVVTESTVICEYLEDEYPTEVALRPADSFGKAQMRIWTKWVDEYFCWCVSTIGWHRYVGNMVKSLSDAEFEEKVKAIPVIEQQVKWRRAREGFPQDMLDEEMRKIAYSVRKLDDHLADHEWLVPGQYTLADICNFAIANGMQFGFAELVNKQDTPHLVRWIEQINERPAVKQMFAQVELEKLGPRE", "assay": "HPLC end-point conversion of MPHPV", "type": "biochemical", "conditions": "β(S)-MPHPV left after BaeA+BaeB reaction on racemic MPHPV; GSH, 25 mM Tris-HCl pH 8.0, 25 mM NaCl, 30 °C"}, "[1]": {"substrate": "COc1cc(C(=O)[C@@H](CO)Oc2ccccc2OC)ccc1O", "assay": "initial rate of GS-HPV formation by HPLC, Michaelis-Menten fit", "type": "biochemical, Novosphingobium aromaticivorans", "conditions": "racemic MPHPV added, concentration counted as β(R), 5 mM GSH, 25 mM Tris-HCl pH 8.0, 25 mM NaCl, 25 °C, per heterodimer", "description": "initial rate of GS-HPV formation by HPLC, Michaelis-Menten fit on BaeAB"}}}
{"molecule": "COc1cc(C(=O)[C@@H](CO)Oc2ccccc2OC)ccc1O", "note": "[β(R)-MPHPV]", "values": [{"measurement": "Km", "setting": "NaLigE", "value": "7 ± 1", "unit": "µM"}]}
{"molecule": "COc1cc(C(=O)[C@H](CO)Oc2ccccc2OC)ccc1O", "note": "[β(S)-MPHPV]", "values": [{"measurement": "HPLC end-point conversion of MPHPV", "setting": "NaLigF1", "value": "upon the addition of NaLigF1, the MPHPV was completely converted into GS-HPV and guaiacol"}]}
{"molecule": "BaeAB (Novosphingobium aromaticivorans DSM 12444) (protein, co-expressed in E. coli B834, His8 tag on BaeB cut by TEV leaving SAIAG- linked to Ser2 (Met1 not coded); heterodimer, ~59 kDa by GPC; with Glutathione S-transferase-like protein (beta-etherase subunit BaeB)) MDEVSLYHWEPNANSGKPMLALMEKGVPFSSHYIDMLQFDQHKPEYLAINPQGTIPAMTHNGQVLTESTAIMEYVNDRFDGPDLMPADAQDRWRVRWWMKFMDQWLGPSFSMIGWSVFVGPMVRQRDPAELAAAIDRIPLPERRTAWRKAINGDFSESEMAESRRRVGLGIAKLEEELGKRPYVGSNQYSLADINIFNSTYSLPISQPDLAGKDRTPNIMRWLKRVYTREAVKKTWAMGKTDLAHRYGLIMAEIEG", "values": [{"measurement": "Km", "setting": "[1]", "value": "20 ± 3", "unit": "µM"}, {"measurement": "kcat", "setting": "[1]", "value": "2.9 ± 0.3", "unit": "s⁻¹"}, {"measurement": "kcat/Km", "setting": "[1]", "value": "150000 ± 30000", "unit": "M⁻¹ s⁻¹"}]}
{"molecule": "BaeAB (Novosphingobium aromaticivorans DSM 12444; N14A) (protein, co-expressed in E. coli B834, His8 tag on BaeB cut by TEV leaving SAIAG- linked to Ser2 (Met1 not coded); heterodimer, ~59 kDa by GPC; with Glutathione S-transferase-like protein (beta-etherase subunit BaeB)) MDEVSLYHWEPNAASGKPMLALMEKGVPFSSHYIDMLQFDQHKPEYLAINPQGTIPAMTHNGQVLTESTAIMEYVNDRFDGPDLMPADAQDRWRVRWWMKFMDQWLGPSFSMIGWSVFVGPMVRQRDPAELAAAIDRIPLPERRTAWRKAINGDFSESEMAESRRRVGLGIAKLEEELGKRPYVGSNQYSLADINIFNSTYSLPISQPDLAGKDRTPNIMRWLKRVYTREAVKKTWAMGKTDLAHRYGLIMAEIEG", "values": [{"measurement": "Km", "setting": "[1]", "value": "250 ± 60", "unit": "µM"}, {"measurement": "kcat", "setting": "[1]", "value": "0.14 ± 0.02", "unit": "s⁻¹"}, {"measurement": "kcat/Km", "setting": "[1]", "value": "500 ± 200", "unit": "M⁻¹ s⁻¹"}]}
{"molecule": "BaeAB (Novosphingobium aromaticivorans DSM 12444; S15A) (protein, co-expressed in E. coli B834, His8 tag on BaeB cut by TEV leaving SAIAG- linked to Ser2 (Met1 not coded); heterodimer, ~59 kDa by GPC; with Glutathione S-transferase-like protein (beta-etherase subunit BaeB)) MDEVSLYHWEPNANAGKPMLALMEKGVPFSSHYIDMLQFDQHKPEYLAINPQGTIPAMTHNGQVLTESTAIMEYVNDRFDGPDLMPADAQDRWRVRWWMKFMDQWLGPSFSMIGWSVFVGPMVRQRDPAELAAAIDRIPLPERRTAWRKAINGDFSESEMAESRRRVGLGIAKLEEELGKRPYVGSNQYSLADINIFNSTYSLPISQPDLAGKDRTPNIMRWLKRVYTREAVKKTWAMGKTDLAHRYGLIMAEIEG", "values": [{"measurement": "Km", "setting": "[1]", "value": "100 ± 20", "unit": "µM"}, {"measurement": "kcat", "setting": "[1]", "value": "2.4 ± 0.3", "unit": "s⁻¹"}, {"measurement": "kcat/Km", "setting": "[1]", "value": "23000 ± 6000", "unit": "M⁻¹ s⁻¹"}]}
